From the DeepSol protein solubility set

Test: soluble on expression in E. coli; label from the status in PepcDB or PDB records
In the case of “MSLDQREILQKFLDEAQSKKITKEEFANEFLKLKRQSTKYKADKTYPTTVAEKPKNIKKNRYKDILPYDYSRVELSLITSDEDSSYINANFIKGVYGPKAYIATQGPLSTTLLDFWRMIWEYSVLIIGMACMEYEMGKKKCERYWAEPVEMQLEFGPFSVSCEAEKRKSDYIIRTLKVKFNSETRTIYQFHYKNWPDHDVPSSIDPILELIWDVRCYQEDDSVPICIHCSAGCGRTGVICAIDYTWMLLKDGIIPENFSVFSLIREMRTQRPSLVQTQEQYELVYNAVLELFKRQMDVIRDKHSGTESQAKEGHHHHHH”, the “soluble on expression in E. coli” value is reported as “soluble”.
For “MAMAVPVSARPQSPAEGFYAINNQFQTNGPKGFSEIKILANEDMFLRMDLPGVPDEGGLSVYHNRSQETVVVFAKAPKVHTHDSTERRYQTMTGIGCSCCAISSITTHMSDGVFRVILSKTRIDPHRSPCTDPALTGPVLQPHPLAFPQPTMAYESKQLPNGKLFVRADMPGVPKENFTVSVTNGRVKVTGQAPAVSHDSSGRFYSGDVAMLSTPVDIPSRRIKTIAKNGVIRLLIPPF”, the “soluble on expression in E. coli” value was “soluble”.
For “MNDHTAAIAAHFDQLAPNLDRWRRRNRTYYRDLEKLHRFWIPTGSRVLQVGSGLGDLLATVEPSFGIGIDVSPQAVAIAQQRHPQLQFHCLAAEELTPEAIGNPEPFDAIILTGVLSYLTDIQVVLEQLQAFCHPRTRLILGFHNFLWQPLLTAAEKVGQRSPQPPESWLGMQDVLNLLTLTGYEPIKQGLEHHHHHH”, the “soluble on expression in E. coli” value was “soluble”.
In the case of “GGHDVPLTNYLNAQYYTDITLGTPPQNFKVILDTGSSNLWVPSNECGSLACFLHSKYDHEASSSYKANGTEFAIQYGTGSLEGYISQDTLSIGDLTIPKQDFAEATSEPGLTFAFGKFDGILGLGYDTISVDKVVPPFYNAIQQDLLDEKRFAFYLGDTSKDTENGGEATFGGIDESKFKGDITWLPVRRKAYWEVKFEGIGLGDEYAELESHGAAIDTGTSLITLPSGLAEMINAEIGAKKGSTGQYTLDCNTRDNLPDLIFNFNGYNFTIGPYDYTLEVSGSCISAITPMDFPEPVGPLAIVGDAFLRKYYSIYDLGNNAVGLAKAI”, the “soluble on expression in E. coli” value is reported as “soluble”.
With “RSFGLIIPDLENTSYARLAKLIEQNSRKAGYQILIGCSDDDPETEKKVAEALISRRIDALFVASGMPSANEYYLKLQNSGTPVIALDRPMDDEHFCCVISEDFDAAFELTESVLSPEIKTIGLIGALQDLQVSKERELGFRSACQKDDTAMTVGYGLHFSREEGKKVLDKWVQADSLPDAIVTTSYTLLEGVLDVMLEKPELMSQVRLATFGDNRLLDFLPVKINSLPQQFELIADSAMELALNASAKRYKPGVELIPRKIVKRQ” the “soluble on expression in E. coli” value was “not soluble”.
For “MRGASGGMIQCQYEVHISKNDTYSMDRPHFHEDIEIVLCIAGEGVFFLEPEVFPLYRGQLFLIDSSILHRSVANEEYRCMVFHISSEMLHEFSSLQSNFQARSKRSGLVATLTEEATKYLESLYGKLAEDFGNEFGGDIRQTITLLTFLLTCFSHFNEAEDGEVHTNPSLDKVAPILTYIQEHLGEAMTTQSIADAFYMSKYHLCHIFKEGTGFSLMDYVINCRILKARSLLRNGMRVQEVGENVGFRNNEHFIRTFKKLTGTPPKRYAMMYKDSDQNAQRELVVVEGKDGKIIEGIKA”, the “soluble on expression in E. coli” value was “not soluble”.
For “MKQPGEELQETLTELDDRAVVDYLIKNPEFFIRNARAVEAIRVPHPVRGTVSLVEWHMARARNHIHVLEENMALLMEQAIANEGLFYRLLYLQRSLTAASSLDDMLMRFHRWARDLGLAGASLRLFPDRWRLGAPSNHTHLALSRQSFEPLRIQRLGQEQHYLGPLNGPELLVVLPEAKAVGSVAMSMLGSDADLGVVLFTSRDASHYQQGQGTQLLHEIALMLPELLERWIERV”, the “soluble on expression in E. coli” value was “not soluble”.
In the case of “MAHHHHHHMRPSFGSLDYNVLSNFCEKLFLAADKNDRNEVITKKTLQMFFTSKIFYEILNHFKNLSTEENKKYVYAKYKTIYLKKCFDNNITPEPGSPKNEDAVSEVDNKIDDEDKEEEEQITNDKYEHYEENNNDYYKGREKIGTQSKGTEDSVDFNLSLKHAQYAVNGIIKIIYIPRYSETRAQIIPFIFRIIFFFNGEEETKNIGYII”, the “soluble on expression in E. coli” value is reported as “not soluble”.
In the case of “MPADDLQQALNNSQNGDVITLGPGSYFGNFIISNQVTLRSNNKGEAIIDSQGKGHGLWLKNSQITIENLTITNWGHDLTDQNSGIYSHGKIDNNKVPSLTIRNNILIGDGFGIWLNQADKAIISHNRVKGNLTLRSADRGNGIQVANVTNSHVFLNEVSETRDGVYVISSQNNIIEQNTMHHLRYGIHYMYSYDNTVKNNTAYDTRAGYALMSSRRLTITGNKTTNSEDYGFLLNFITQSTFSHNYVKNVWTKPENKVLGRDGKGLFVYNSGYNTVKHNIIDTAEIGIHLTAGSENIKIFGNSFINNPTQVKYVSNKKQEWSKDGRGNYWSNYLGWDMGNDGIGDTIFEPNDGIDKLVWQYPEMKMIMDSPAILILRWVQRQFPVLKPPGVKDSFPLMSAPSLTKNEQAATPLAVTTSTFTKSNSAQSANTTSASLKELEHHHHHH”, the “soluble on expression in E. coli” value is reported as “soluble”.
With “MGSDKIHHHHHHAPLTFDETAFREDVKTLASDAFGGRAPLSDGEQKTLDYLTHAFKSMGLKGAFNGEYLQAVPMAKITADQSMVLKVGELSFTSGEDFTARTQRVVPKVELSGSDMVFVGYGINAPEYGWNDYAGIDVRGKTVVLLVNDPGFATQDPKVFKGNAMTYYGRWTYKYEEAARQGAEAVFIVHEDAPAAYGWGVVKNSNTNTKFTLVDGNNNQSQVGVMGWLQYAAAKQILAASGQDIEALKAAAKAPGFKAVPLTVQADLTLSNHIERAESHNVAAILPGNKNADEAVVMHAHWDHLGQIEEEGKTIILNGAVDNATGVAGVLALARHYAALPEAEKPARSMIFSAFTAEETGLIGAQYFAENPPLPTSKLVAFLNIDGMNVGEGVDYILRYGEGVSELETMLSDAAKAQNRQVKADPRPQNGLMFRSDHFALAQQGVPGLLFMSLGDTDPDYIAHKYHKGADDYSPDWQLGGVKQDLKLIEQILSRLANGSEWPKWLEESDFKARRAKDGR” the “soluble on expression in E. coli” value was “not soluble”.
With “MRYDVSSNSLYVFCSIVLFSDLRFRIGGKYMAERHMFLKKDPSKENSIIVSNIPAFVGEGVVLAIIDQFASFEVEESFVQRSNTADNSLSQGQLTMSITFDKPEAVIQTLALCQDVGPFTITDFLEDPEFPSVLKDSTTLYRKLFPSEEQIQEMADTYVERYDTEQTEARKEAKRKYSEPDEDGWITVTKAKKAAKSVKLKKEDVPLIGGLNNKKKKVDLAYYTFQIKKNRQEKAQELLKKFEEDRKRITQLKQARNFKPI” the “soluble on expression in E. coli” value was “not soluble”.
For “LRIEPVHDVEHSATVRDLEHIVAESRDAGELPRELSTLLGRILDFPTRTAGHAMIPRAHVDTVRAHDSLSSVLEKMGAGHTRYPVVGSSSDDLRGVIHLHDLLGEQSDGPAASRARPAVVVPSSLPLPDVLEQLTAARDEMALVVDEYGGFAGVITIEDLAEELVGEIA”, the “soluble on expression in E. coli” value was “not soluble”.
In the case of “SLAGETINFCKGWKFHLGDAGKGASSSSYNDSQWRILNIPHDWSIEGTYKQFENGTDWQSGFLPAGISWYRKTFTIPSKWKNKKVQILFEGVYLNSEVWINGHWLGKRPNGYISFVYDLTPYLQEGKNQIAVKVDHSKALTGRWYTGSGIYRPVYLLVSNPTHIPYSGIHFRSKLQNKQSATYTLSIEIETQEKKPIKVKTYLQAPNGSIADTSEKIFVSSADSLCFLSGSIRKPLLWSPDSPNVYTLICQLTRDNKILDECRLPVGFRQLEFNPVSGFLLNGKSLKIKGVCDHHTVGAVGAAVPDDLLHYRLKLLKDMGCNAIRTSHNPFSPAFYNLCDTMGIMVLNEGLDGWNQPKAADDYGNYFDEWWQKDMTDFIKRDRNHPSIIMWSIGNEVTGATPEIQHNLVSLFHQLDPDRPVTQGGTDPTRGMKTDYQKKFNYLDIIGFNGNGEEIGELEHFHKNYPTLCAIATEVPHTYQTRGVYRSQTQWRRRDFPAPWEKGNINWEQFKHRVFPIPDLTEKECFPEESDYPYYQSSYDNASVRISARKSWQRTCSFPWLMGEFRWGSFDYLGEAEWPQRCGNFGIIDIAAIPKDAYFLYQSLWTDKPMVHLLPHWTHPGKEGKTIPVVIYTNCDAVELFINNVSLGSKPYTGEQLIWLVPYSPGKIEARGIKKGKIVATDCYQSAEAPHSVALASNKYSVKAGSDEVIRIEIDITDKNGIPCPYASNELSFHVSGPLRLLGVDNGNPTDMFPYQQPHCRCFRGKCVVLLQSDEEKGKGTLTVQGTKLVEKKLIIEVIEG”, the “soluble on expression in E. coli” value is reported as “soluble”.
In the case of “SNAMTIRFADKADCAAITEIYNHAVLHTAAIWNDRTVDTDNRLAWYEARQLLGYPVLVSEENGVVTGYASFGDWRSFDGFRYTVEHSVYVHPAHQGKGLGRKLLSRLIDEARRCGKHVMVAGIESQNAASIRLHHSLGFTVTAQMPQVGVKFGRWLDLTFMQLQLDEHAAPDAC”, the “soluble on expression in E. coli” value is reported as “soluble”.
In the case of “MADSTATSTPRAVPSHEDRPVYVIGGGPGGLAAAHALRAQGVRAVVLEKSDRVGASWRRHYDRLHLHTTRRLSALPGLPMPRSFGRWVSRDNVVRYLEKYVEHHQLEIVTGVEVSRVEPAPDGTGWLLHATGGRELTGSAVVVATGHNHTPHLPDWPGRDAYTGELLHAGDYRNATPHAGRDVLVVGVGNTGAEIAVDLVEGGASRVRLAVRTAPHIVRRSTAGWAAQFTGIVVRRLPVRLVDLLAGPMARLSVPDLSAQGLPRPDTGLYSRVREGSIPVQDVGLIDAVRKGRVEIVAAVDGFEDGKVVLADGNRIGPDVVIAATGYARALEDLVGHLDVLDGRGRPTVHGARTPRTAPGLYFTGFTNPISGMFRELAIDAEKIAKAVAKALARTTARTPALEHHHHHH”, the “soluble on expression in E. coli” value is reported as “soluble”.
In the case of “MNNSNLAAARNLIQVVTGEWKSRCVYVATRLGLADLIESGIDSDETLAAAVGSDAERIHRLMRLLVAFEIFQGDTRDGYANTPTSHLLRDVEGSFRDMVLFYGEEFHAAWTPACEALLSGTPGFELAFGEDFYSYLKRCPDAGRRFLLAMKASNLAFHEIPRLLDFRGRSFVDVGGGSGELTKAILQAEPSARGVMLDREGSLGVARDNLSSLLAGERVSLVGGDMLQEVPSNGDIYLLSRIIGDLDEAASLRLLGNCREAMAGDGRVVVIERTISASEPSPMSVLWDVHLFMACAGRHRTTEEVVDLLGRGGFAVERIVDLPMETRMIVAARA”, the “soluble on expression in E. coli” value is reported as “soluble”.
In the case of “GSLVPELNEKDDDQVQKALASRENTQLMNRDNIEITVRDFKTLAPRRWLNDTIIEFFMKYIEKSTPNTVAFNSFFYTNLSERGYQGVRRWMKRKKTQIDKLDKIFTPINLNQSHWALGIIDLKKKTIGYVDSLSNGPNAMSFAILTDLQKYVMEESKHTIGEDFDLIHLDCPQQPNGYDCGIYVCMNTLYGSADAPLDFDYKDAIRMRRFIAHLILTDALK”, the “soluble on expression in E. coli” value is reported as “soluble”.
For “MGSDKIHHHHHHMITTDSGEQVEALAPIIISASRSTDIPAFYAKWFFNRLAKGYCVWYNPFNRRKMYVSFERCKAIVFWTKNPKLILPYLHELDRRGIHYYFQFTLNDYVSEGFEPNVPSVTQRVETFRELSEMIGKERVIWRFDPLIMTPSITPRVLLSRIWKIGNLLKGYTDKLVFSFVDVKAYRKVQNNLIKETNCFTKEDVETAEMNATQRQETVEGLVKLREIWASTGWNVTLATCAEDIDLTVYGIEHNRCIDGDLMERVFEEDYELVYYLRTGQLPEPDLFGTFPALPDKRKDLKDKGQRKACGCMISKDIGRYNTCRHFCVYCYANTSRECVQKNAVHYSDDSESLIRS”, the “soluble on expression in E. coli” value was “not soluble”.
For “MGSDKIHHHHHHMASIRELHEQLVKKERSAVEITQETLDHIQELEPKLHSFLHITAQQALEQARAVDAKIAAGEEIGLLAGIPIGVKDNMCTKGIPTTCASRILENFVPPYESTVTQKLLDAGAVVVGKTNLDEFAMGSSTENSAYQVTANPWDLSRVPGGSSGGSAAAVAAEECVVALGSDTGGSIRQPASFCGVVGLKPTYGLVSRYGLVAYASSLDQIGPFGKSVEDTAILLKAIAGYDHQDSTSLKVEIPDYVASLKPDLKARSKLRIGIIKETFGEGLDSVVEQAVTKAIEQLQRLGAEVHVISCPNFRYGVPSYYIIAPSEASANLARYDGVKYGWRAPEGDNLLSMYKRTRATGFGAEVKRRIMIGTYALSAGYYDAYYLKAQKVRTLIKQDFENAFKNVDVLVSPTAPTTAFKAGEKTADPISMYLNDLMTIPVNLAGLPGLSVPCGFDEQGLPIGLQLIGKVLREDQLLQIAYAYEQSTSWHLSQPKIS”, the “soluble on expression in E. coli” value was “not soluble”.
